Reference: PMC5461540, “MOB1 Mediated Phospho-recognition in the Core Mammalian Hippo Pathway * ^([image sbox.jpg])” (Molecular & Cellular Proteomics : MCP, 2017)
Where no end group is shown, it is not given here.

T1: MOB1A wild-type (human, UniProt Q9H8S9-1 2-216)
T1 construct: also called MOB1A WT; full-length nonphosphorylated human MOB1A; source: E. coli BL21 (DE3) CodonPlus RIL, purified (glutathione-Sepharose, TEV cleavage, subtractive IMAC, SEC); not shown: His6, N-terminal, cleaved; GST, N-terminal, cleaved
T1 sequence (looked up): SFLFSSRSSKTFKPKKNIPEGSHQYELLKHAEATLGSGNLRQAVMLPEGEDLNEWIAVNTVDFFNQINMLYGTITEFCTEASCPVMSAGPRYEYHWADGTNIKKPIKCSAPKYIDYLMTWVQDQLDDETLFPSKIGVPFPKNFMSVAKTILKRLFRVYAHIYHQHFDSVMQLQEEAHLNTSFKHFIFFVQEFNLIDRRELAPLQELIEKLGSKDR

B1: MST1 pT353 phosphopeptide (15-mer, crystallization) (peptide)
peptide: VASTMTDGANTMIEH
modifications: also: phosphothreonine at 353 (place in peptide not given here)
notes: MST1 (STK4), human, 15-mer encompassing pT353; also called MST1-pT353 peptide; source: synthetic peptide, bought: Biomatik
B2: MST1 pT367 phosphopeptide (15-mer, crystallization) (peptide)
peptide: DDTLPSQLGTMVINA
modifications: also: phosphothreonine at 367 (place in peptide not given here)
notes: MST1 (STK4), human, 15-mer encompassing pT367; also called MST1-pT367 peptide; source: synthetic peptide, bought: Biomatik

Molecular target: T1, MOB1A wild-type
Test: crystal structure; MOB1A mixed with MST1 phosphopeptide at 1:1.5 mole ratio; hanging drops, 0.1 M MES pH 6.0, 0.2 M LiCl, 20% PEG 6000
Settings: both partners purified

Row | Binder | binding result
1 | B1 | binds
2 | B2 | binds
